{"source": "FireProtDB (doi:10.1021/acs.biochem.7b00571)", "parents": {"B1": {"name": "Salicylic acid-binding protein 2, Q6RYA0 (parent)", "chain": "MKEGKHFVLVHGACHGGWSWYKLKPLLEAAGHKVTALDLAASGTDLRKIEELRTLYDYTLPLMELMESLSADEKVILVGHSLGGMNLGLAMEKYPQKIYAAVFLAAFMPDSVHNSSFVLEQYNERTPAENWLDTQFLPYGSPEEPLTSMFFGPKFLAHKLYQLCSPEDLALASSLVRPSSLFMEDLSKAKYFTDERFGSVKRVYIVCTEDKGIPEEFQRWQIDNIGVTEAIEIKGADHMAMLCEPQKLCASLLEIAHKYN"}}}
{"variants_of": "B1", "details": "Nicotiana tabacum; pH 7.2; 4 °C; Urea; Fluorescence; BES; reversible: yes; structure 1Y7I; whole UniProt chain shown", "units": {"denaturant midpoint (higher = more stable)": "M"}}
{"variant": "E244K", "denaturant midpoint (higher = more stable)": 3}
{"variant": "I225T", "denaturant midpoint (higher = more stable)": 1.5}
{"variant": "F197Y", "denaturant midpoint (higher = more stable)": 2.2}
{"variant": "C249A", "denaturant midpoint (higher = more stable)": 2.1}
{"variant": "A189S", "denaturant midpoint (higher = more stable)": 2.5}
{"variant": "A189N", "denaturant midpoint (higher = more stable)": 2.6}
{"variant": "G226P", "denaturant midpoint (higher = more stable)": 1.6}
{"variant": "K247E", "denaturant midpoint (higher = more stable)": 1.1}
{"variant": "L65F", "denaturant midpoint (higher = more stable)": 3.8}
{"variant": "S70P", "denaturant midpoint (higher = more stable)": 2.4}
{"variant": "S115P", "denaturant midpoint (higher = more stable)": 1.9}
{"variant": "S115A", "denaturant midpoint (higher = more stable)": 2.4}
{"variant": "C164S", "denaturant midpoint (higher = more stable)": 0.9}
{"variant": "L46P", "denaturant midpoint (higher = more stable)": 2.4}
{"variant": "A250K", "denaturant midpoint (higher = more stable)": 2}
{"variant": "E144M", "denaturant midpoint (higher = more stable)": 2}
{"variant": "E144Y", "denaturant midpoint (higher = more stable)": 2.4}
{"variant": "V227P", "denaturant midpoint (higher = more stable)": 1.8}
{"variant": "L60R", "denaturant midpoint (higher = more stable)": 2.7}
{"variant": "S141P", "denaturant midpoint (higher = more stable)": 2.2}
{"variant": "S141N", "denaturant midpoint (higher = more stable)": 1.8}
{"variant": "A172V", "denaturant midpoint (higher = more stable)": 2.3}
{"variant": "T228S", "denaturant midpoint (higher = more stable)": 1.9}
{"variant": "Q221M", "denaturant midpoint (higher = more stable)": 2.7}
{"variant": "A71P", "denaturant midpoint (higher = more stable)": 1.9}
{"variant": "Y94F", "denaturant midpoint (higher = more stable)": 2.2}
{"variant": "S251V", "denaturant midpoint (higher = more stable)": 2.2}
{"variant": "G212C", "denaturant midpoint (higher = more stable)": 3.5}
{"variant": "S165P", "denaturant midpoint (higher = more stable)": 2.5}
{"variant": "A230V", "denaturant midpoint (higher = more stable)": 2.6}
{"variant": "I231R", "denaturant midpoint (higher = more stable)": 1.9}
{"variant": "E215P", "denaturant midpoint (higher = more stable)": 3.2}
{"variant": "G17A", "denaturant midpoint (higher = more stable)": 2.1}
{"variant": "N114G", "denaturant midpoint (higher = more stable)": 2.5}
{"variant": "N114L", "denaturant midpoint (higher = more stable)": 2}
{"variant": "S111P", "denaturant midpoint (higher = more stable)": 1.7}
{"variant": "S111G", "denaturant midpoint (higher = more stable)": 1.7}
{"variant": "K188R", "denaturant midpoint (higher = more stable)": 2.5}
{"variant": "Q162H", "denaturant midpoint (higher = more stable)": 2.4}
{"variant": "C243S", "denaturant midpoint (higher = more stable)": 2.1}
